The record followed here is US20130236944A1, “METHODS FOR THE INACTIVATION OF ANTIBIOTICS” (priority 2011, published 2013).

The assay is described as follows: Inactivation of amoxicillin by lipases. The class given is biochemical, Bacillus subtilis. Particulars: in 168 h, antibiotic 5.15 μg/, approximately 20° C. The method, then:
The plates are incubated 18 hours at 37° C.
In this example, the indicator bacterial strains sensitive to beta-lactam antibiotics (e.g. amoxicillin) and macrolide antibiotics were Bacillus subtilis (CIP 52.62) and Micrococcus luteus (CIP 53.45) respectively. All inactivation studies were performed with final antibiotic concentrations of 5.15 μg/. Lipases were used at final concentrations of 2.5 mg/mL (referred as ‘High concentration’) and 0.5 mg/mL (referred as ‘Low concentration’); they were obtained from Codexis.

B1: Lipase from Pseudomonas cepacia P1: Lipase from Pseudomonas cepacia (also called Bulkholderia cepacia) P1, obtained from Codexis (protein, UniProt P22088 45-364, looked up)
Triacylglycerol lipase: AAGYAATRYPIILVHGLSGTDKYAGVLEYWYGIQEDLQQNGATVYVANLSGFQSDDGPNGRGEQLLAYVKTVLAATGATKVNLVGHSQGGLSSRYVAAVAPDLVASVTTIGTPHRGSEFADFVQDVLAYDPTGLSSSVIAAFVNVFGILTSSSHNTNQDALAALQTLTTARAATYNQNYPSAGLGAPGSCQTGAPTETVGGNTHLLYSWAGTAIQPTLSVFGVTGATDTSTLPLVDPANVLDLSTLALFGTGTVMINRGSGQNDGLVSKCSALYGKVLSTSYKWNHLDEINQLLGVRGAYAEDPVAVIRTHANRLKLAGV
B1: the Amoxicillin inactivation result is given as “+++ in 168 h (100% inactivation = the residual concentration of antibiotic is smaller than the limit of detection of the microbiological test)” (enzyme H (High concentration, 2.5 mg/mL)) and “+++ in 168 h (100% inactivation = the residual concentration of antibiotic is smaller than the limit of detection of the microbiological test)” (enzyme L (Low concentration, 0.5 mg/mL)).
